Reference: US20160369011A1 (EISAI R AND D MANAGEMENT, published 2016)
Substitutions are numbered along the chain they refer to. Each block holds one binder with its values, some of them ahead of it.

Key:
human CD73 [1] = target: T1, human CD73 (human, UniProt P21589 27-547, limits assumed); assay: ELISA, B cell culture supernatant, 2nd screening
T1 construct: also called control antigen
T1 sequence (looked up): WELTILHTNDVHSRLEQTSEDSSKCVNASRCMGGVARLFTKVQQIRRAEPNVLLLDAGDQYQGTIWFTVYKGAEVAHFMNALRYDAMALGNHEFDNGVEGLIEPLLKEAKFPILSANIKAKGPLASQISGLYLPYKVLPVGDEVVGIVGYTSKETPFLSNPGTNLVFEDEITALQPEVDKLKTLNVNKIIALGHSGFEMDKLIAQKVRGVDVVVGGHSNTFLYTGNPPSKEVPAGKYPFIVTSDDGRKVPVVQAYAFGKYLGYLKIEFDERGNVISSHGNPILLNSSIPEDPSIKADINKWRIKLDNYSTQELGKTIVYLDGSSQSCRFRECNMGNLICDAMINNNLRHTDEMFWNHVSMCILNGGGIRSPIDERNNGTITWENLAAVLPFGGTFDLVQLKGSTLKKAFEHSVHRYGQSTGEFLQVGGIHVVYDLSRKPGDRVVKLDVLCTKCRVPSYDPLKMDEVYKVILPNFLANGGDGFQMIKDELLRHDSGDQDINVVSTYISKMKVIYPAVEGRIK

human MSLN (mesothelin) [2] = target: T2, human MSLN (mesothelin) (human, UniProt Q13421 296-598); assay: ELISA on human MSLN, B cell culture supernatant, 1st screening
T2 construct: The construct coated on the plates is not described; also called human mesothelin
T2 sequence (Q13421 other isoform, or with tags, fused parts or gaps limits assumed, form in doubt): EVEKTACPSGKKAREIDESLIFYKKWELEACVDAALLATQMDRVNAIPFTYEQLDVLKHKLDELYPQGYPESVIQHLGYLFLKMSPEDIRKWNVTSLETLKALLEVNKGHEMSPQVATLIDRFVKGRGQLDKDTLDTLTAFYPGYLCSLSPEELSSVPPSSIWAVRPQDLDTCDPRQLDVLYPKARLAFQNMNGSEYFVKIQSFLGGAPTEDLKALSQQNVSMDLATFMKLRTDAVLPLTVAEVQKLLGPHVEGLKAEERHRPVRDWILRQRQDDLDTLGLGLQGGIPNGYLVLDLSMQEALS

human CD73 [3] = target: T1, human CD73; assay: ELISA on control antigen human CD73, B cell culture supernatant, 2nd screening
human MSLN (mesothelin) [4] = target: T2, human MSLN (mesothelin); assay: ELISA on human MSLN, B cell culture supernatant, 2nd screening
[5] = target: T3, human CA9 (carbonic anhydrase IX) (human, UniProt Q16790 38-414); assay: SPR (BIAcore), biotin-CA9 captured on CAP chip, antibody 0-50 nM as analyte
Description: To determine if chimerization, and therefore the loss of Cys80-Cys171 disulfide bond, results in structural perturbations leading to loss of antigen binding, the binding affinity of mAbs 155D5, xi155D5, 1-55-2, and xi1-55-2 by surface plasmon resonance was evaluated. Biotinylated ligand (biotin-hTEM1 for 1-55-2, biotin-CA9 for 155D5) was captured on a coated biotin CAP BIAcore chip (GE Healthcare, Piscataway, N.J.) using HBS-EP as running buffer. Final antigen capture levels were 130 RU and 280 RU, respectively, for biotin-TEM1 and biotin-CA9. Serial dilutions of antibody (120 μL of 0-50 nM) were passed over the ligand-coated chip. […] The chip surface was regenerated with 6 M GuHCl, 250 mM NaOH. Sensograms were double referenced and kinetic parameters were determined using BIAEvaluations software (ver. 4.1).

[6] = target: T3, human CA9 (carbonic anhydrase IX); assay: BIAcore T100, mAb captured on anti-human IgG, antigen as analyte, 1:1 model; mAb purified by protein A (ProA); protein A (ProA) purified, not decapped
Description: (§1) Antibody concentrations were adjusted to generate 30-40 RU signal when bound to the antigen. […] The sensor surface was washed by injecting HBS-P buffer for 1 min at a flow rate of 50 μL/min. To record the antigen association to the captured mAb, a series of increasing concentrations of antigen was injected for 60 sec at a flow rate of 50 μL/min. The dissociation of antigen was monitored for 30 min at the same flow rate. The sensor surface was regenerated by injecting 3 M MgCl₂ for 1 min and then 30 sec at a flow rate of 30 μL/min. Sensograms were analyzed with Biacore T100 Evaluation Software using a 1:1 Langmuir binding model.
(§2) xi155D5 and the humanized variants were purified by standard protein A chromatography or the decapping method, and their affinity was analyzed using BIAcore (Table 13).

[7] = target: T3, human CA9 (carbonic anhydrase IX); assay: BIAcore T100, mAb captured on anti-human IgG, antigen as analyte, 1:1 model; mAb purified by protein A (ProA)
Description: as §1, §2

B2: xi155D5 (rabbit/human chimerized 155D5 mAb) (antibody, human IgG1, kappa, V domains shown)
VH: QSVKESGGRLVTPGTPLTLTCTVSGFSLNSYAMIWVRQAPGEGLEYIGFITTGGTTYYASWAKGRFTISRTSTTVDLKLTRPTTEDTATYFCARDRVKSYDDYGDLDAFEPWGPGTLVTISS
VL: ELVMTQTPSSVSAAVGGTVTINCQASQSISSYLAWYQQKPGQPPKLLIYYASTLASGVPSRFKGSGSGTEFTLTITGVQCDDAATYYCLGVYGYSFDDGIAFGGGTELEIKR
notes: Human IgG1 kappa constant regions; Unpaired Cys80 of the light chain is capped by a free cysteine after plain protein A purification; also called xi155D5 mAb
- Kd [5]: 0.051 nM
- koff [5]: 2.4e-05 s⁻¹
- kon [5]: 460000 M⁻¹ s⁻¹
- kon [6]: 458000 M⁻¹ s⁻¹
- Kd [7]: 0.324 nM
- koff [7]: 0.000149 s⁻¹

B3: 178F16 (rabbit anti-MSLN mAb) (antibody, V domains shown)
VH: QSLEESGGRLVTPGTPLTLTCTASGFSLSNYAMTWVRQAPGKGLEYIGIISTGGITYYMDSAKGRFTISRTSTTVDLKMTSLTTEDTATYFCGRNAGGSYIFYYFDLWGQGTLVTVSS
VL: AFELTQTPSSVEAAVGGTVTIKCQASQSIYSYLAWYQQKPGQPPKLLIYSASTLASGVSSRFRGSGSGTEYILTISDLECADAATYYCQTYYDIVTSTFGGGTEVVVK
- binding result (human CD73 [1]): no binding
- Optical Density (Anti-MSLN reactivity, 1st screening) (human MSLN (mesothelin) [2]): 0.966 OD
- Optical Density (Anti-CD73 reactivity, 2nd screening) (human CD73 [3]): 0.141 OD
- Optical Density (Anti-MSLN reactivity, 2nd screening) (human MSLN (mesothelin) [4]): 1.88 OD

B4: 324O5 (rabbit anti-MSLN mAb) (antibody, V domains shown)
VH: B3 VH
VL: B3 VL with I72T
- binding result (human CD73 [1]): no binding
- Optical Density (Anti-MSLN reactivity, 1st screening) (human MSLN (mesothelin) [2]): 1.4 OD
- Optical Density (Anti-CD73 reactivity, 2nd screening) (human CD73 [3]): 0.0801 OD
- Optical Density (Anti-MSLN reactivity, 2nd screening) (human MSLN (mesothelin) [4]): 2.22 OD

The remaining lines, values ahead:

- binding result (human CD73 [1]): no binding
- Optical Density (Anti-MSLN reactivity, 1st screening) (human MSLN (mesothelin) [2]): 0.249 OD
- Optical Density (Anti-CD73 reactivity, 2nd screening) (human CD73 [3]): 0.0744 OD
- Optical Density (Anti-MSLN reactivity, 2nd screening) (human MSLN (mesothelin) [4]): 0.296 OD
B1: 383I18 (rabbit anti-MSLN mAb) (antibody, V domains shown)
VH: QSVEESGGRLVTPGTPLTLTCTVSGFSLSSYAMGWVRQAPGEGLEWIGTISTGGITYYASWAKGRFTISKTSTTVDLKITSPTTEDTATYFCARVGSSGYLFYFFNLWGQGTLVTVSS
VL: VFELTQTPSPVSAAVGGTVTIRCQASQNIKSYLAWYQQKPGQPPKLLIYEASILASGVSSRFKGSGSGTEFTLTISDLECADAATYYCQSYYAASSNAFGGGTEVVVK

- binding result (human CD73 [1]): no binding
- Optical Density (Anti-MSLN reactivity, 1st screening) (human MSLN (mesothelin) [2]): 0.282 OD
- Optical Density (Anti-CD73 reactivity, 2nd screening) (human CD73 [3]): 0.0818 OD
- Optical Density (Anti-MSLN reactivity, 2nd screening) (human MSLN (mesothelin) [4]): 0.504 OD
B5: 33O11 (rabbit anti-MSLN mAb) (antibody, V domains shown)
VH: QSVEESGGRLVTPGTPLTLTCTVSGISLSSDAISWVRQAPGKGLEYIGIINGGGNTYYASWAKGRFTISKTSTTVDLKITSPTTEDTATYFCARGIQHGGGNSDYYYYGMDLWGPGTLVTVSS
VL: EVLMTQTPSSVSAAVGDTVTIKCQASQSISSVLSWYQQKPGQPPKLLIYLASTLASGVPSRFSGSRSGTEFTLTISDLECDDAATYYCQTNYGTSSSNYGFAFGGGTEVVVK

- binding result (human CD73 [1]): no binding
- Optical Density (Anti-MSLN reactivity, 1st screening) (human MSLN (mesothelin) [2]): 0.362 OD
- Optical Density (Anti-CD73 reactivity, 2nd screening) (human CD73 [3]): 0.0918 OD
- Optical Density (Anti-MSLN reactivity, 2nd screening) (human MSLN (mesothelin) [4]): 0.668 OD
B6: 237N18 (rabbit anti-MSLN mAb) (antibody, V domains shown)
VH: QSLEESGGRLVAPGTPLTLTCTVSGFSLSSYHMSWVRQAPGEGLEWIGGITAMSRTYYASWAKGRFTISKTSTTVHLKITSPTTEDTATYFCAREPGFVSNIWGPGTLVTVSL
VL: AVVLTQTASPVSGVVGGTVTIKCQASQNIYSNLAWYQQKPGQRPKLLMYDASTLASGVPSRFKGSGSGTQFTLTISDLECADAATYYCQSISSVDNNVFGGGTEVVVK
